Experiments:
SHP2 N-SH2^T42A domain = biological target: T1, SHP2 N-SH2^T42A domain (Homo sapiens, UniProt Q06124, T42A); test: Direct fluorescence polarization binding, N-SH2 T42A; conditions: direct fluorescence polarization with fluorescent peptide
T1 construct: SHP2 SH2 domains were cloned into a His6-SUMO-SH2-Avi construct; His6-SUMO (N, cleaved yes); made in house; host or cells: E. coli C43(DE3), co-expressed with BirA
T1 sequence (Q06124 6-102 T42A limits assumed): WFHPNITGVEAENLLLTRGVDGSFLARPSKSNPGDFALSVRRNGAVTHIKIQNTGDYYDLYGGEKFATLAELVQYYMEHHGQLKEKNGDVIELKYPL
Protocol: Fluorescence polarization binding assays
SH2 domains were thawed in room temperature water and their absorbance at 280 nm was measured to determine concentration. SH2 domains were serially diluted 15 times in assay buffer (60 mM HEPES pH 7.2, 75 mM KCl, 75 mM NaCl,1 mM EDTA, 0.05% Tween-20), with a 2x starting concentrations generally in the low micromolar range. […] The […]
fluorescent peptide was diluted to 2x the desired concentration and mixed in 1:1 ratio with the different concentrations of SH2 domain (specific fluorescent peptide concentrations can be found in Table S2).
The mixture was transferred to a black 96-well plate and incubated for 15 minutes at room temperature. Parallel and perpendicular measurements were taken using the 485/30 polarization cube on the BioTek Neo2 Plate Reader. Data was analyzed and fitted to a quadratic binding equation to determine the KD for the fluorescent peptide, according to previously established methods (2, 3). […]
P-values comparing affinities for different SH2 domains were calculated using an unpaired Welch’s t-test. […]
Right before starting the plate reader assay, 30 μL SHP2 was added to each well a Supplementary Information - page 4 of 18

[1] = biological target: SHP2 N-SH2 domain, wild type (N-SH2-Avi-biotin) (UniProt Q06124); test: peptide display screen (pTyr-Var Library); conditions: N = 2 independent library transformations and screens, read off a plot
[2] = biological target: ALDH2 pTyr 502 E504K peptide FGLQA-pY-TKVKT; test: peptide display screen (pTyr-Var Library); conditions: N = 2 independent library transformations and screens; parent: est. 1.3; read off a plot
[3] = biological target: MERTK pTyr 872 I871V peptide QADVV-pY-VNTQL; test: peptide display screen (pTyr-Var Library); conditions: N = 2 independent library transformations and screens; parent: est. 1.0; read off a plot
[4] = biological target: MLH1 pTyr 293 L292P peptide THPFP-pY-LSLEI; test: peptide display screen (pTyr-Var Library); conditions: N = 2 independent library transformations and screens; parent: est. 2.9; read off a plot

In the case of `CC[C@H](C)[C@H](NC(=O)[C@H](Cc1ccc(OP(=O)(O)O)cc1)NC(=O)[C@H](CC(N)=O)NC(=O)[C@H](CC(C)C)NC(=O)CNC(=O)[C@H](CC(N)=O)NC(=O)[C@H](CCC(=O)O)NC(=O)CCCCCNC(=S)Nc1ccc2c(c1)C(=O)OC21c2ccc(O)cc2Oc2cc(O)ccc21)C(=O)N[C@@H](CC(=O)O)C(=O)N[C@@H](CC(C)C)C(=O)N[C@@H](CC(=O)O)C(=O)N[C@@H](CC(C)C)C(N)=O`, the “tighter binding of N-SH2^T42A compared to N-SH2^WT” value (SHP2 N-SH2^T42A domain) is reported as 5 fold.

In the case of “MERTK pTyr 872 peptide QADVI-pY-VNTQL I871T”, the enrichment (fselected / finput) ([1]; parent: est. 1.0) is reported as 1.5.

Work on “MERTK pTyr 872 peptide QADVI-pY-VNTQL I871V” yielded an enrichment (fselected / finput) ([1]; parent: est. 1.0) of 1.

For “MLH1 pTyr 293 peptide THPFL-pY-LSLEI L292P”, the enrichment (fselected / finput) ([1]; parent: est. 2.9) was 1.4.

“Sm1; ALDH2 pTyr 502 peptide FGLQA-pY-TEVKT N-SH2: T42A; ALDH2 peptide: E504K” gave an enrichment (fselected / finput) [2] of 1.8.

Work on “Sm1; MERTK pTyr 872 peptide QADVI-pY-VNTQL N-SH2: T42A; MERTK peptide: I871V” yielded an enrichment (fselected / finput) [3] of 3.8.

With “Sm1; MLH1 pTyr 293 peptide THPFL-pY-LSLEI N-SH2: T42A; MLH1 peptide: L292P” the enrichment (fselected / finput) [4] was 8.6.

From doi:10.1101/2023.07.10.548257 (bioRxiv, 2024)
